Data: patent CN111234017A (NANJING YOUMAI BIOTECHNOLOGY CO LTD, dated 2020)

Assays:
[1] = target: T1, human PD-L1 expressed on cells (CT26 transfected with human PD-L1, HCC827, Raji-PD-L1, CHO-PDL1-OKT3) (human, UniProt Q9NZQ7 19-290); test: flow cytometry competition: inhibition of human PD-1-Fc binding to Raji-PD-L1 cells
T1 construct: whole, on cells; For CT26 the plasmid encodes human PD-L1 and HCC827 is a human tumour line; also called 过表达PD-L1的CT26细胞; HCC827细胞

[2] = target: T2, 人PD-L1蛋白 (human PD-L1 protein) (human, UniProt Q9NZQ7 19-238, limits assumed); test: ELISA, human PD-L1 protein coated at 1 μg/mL, HRP secondary antibody, OD450
T2 construct: also called CD274; B7-H1

[3] = target: T1, human PD-L1 expressed on cells (CT26 …); test: flow cytometry on HCC827 cells naturally overexpressing PD-L1
[4] = target: T1, human PD-L1 expressed on cells (CT26 …); test: flow cytometry on CT26 cells transfected with human PD-L1
[5] = target: T2, 人PD-L1蛋白 (human PD-L1 protein); test: SPR, Biacore 8K, antibody captured on protein A sensor chip, PD-L1 protein as analyte
[6] = target: T1, human PD-L1 expressed on cells (CT26 …); test: cell-based or functional assay
[7] = target: 食蟹猴PD-L1蛋白 (cynomolgus monkey PD-L1 protein) (cynomolgus monkey); test: ELISA on coated cynomolgus PD-L1 protein

T2 sequence (Q9NZQ7 19-238 limits assumed): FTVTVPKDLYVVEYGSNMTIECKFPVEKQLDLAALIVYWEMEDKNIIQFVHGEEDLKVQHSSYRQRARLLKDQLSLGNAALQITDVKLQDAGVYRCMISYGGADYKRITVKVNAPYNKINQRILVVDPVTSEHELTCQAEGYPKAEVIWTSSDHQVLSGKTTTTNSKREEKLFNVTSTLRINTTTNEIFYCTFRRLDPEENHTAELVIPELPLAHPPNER
T1 sequence (Q9NZQ7 19-290): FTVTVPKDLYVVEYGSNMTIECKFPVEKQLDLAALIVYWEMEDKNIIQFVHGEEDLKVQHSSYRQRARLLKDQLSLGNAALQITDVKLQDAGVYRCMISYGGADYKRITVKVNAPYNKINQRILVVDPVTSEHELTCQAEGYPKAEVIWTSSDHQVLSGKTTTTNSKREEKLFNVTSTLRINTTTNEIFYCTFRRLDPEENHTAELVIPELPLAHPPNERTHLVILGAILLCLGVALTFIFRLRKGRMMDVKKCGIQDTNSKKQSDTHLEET

B1: 人源化抗体MT02-C4 (humanized anti-human PD-L1 antibody MT02-C4) (antibody, human IgG1, kappa, V domains shown)
VH: QVQLQESGPGLVKPSETLSLTCTVSGDSITSGYWSWIRQPPGKGLEYMGYISYTGSTYYSPSLIRRMTISRDTSKNQFSLKLSSVTAADTAVYYCAKYENWKEGYFDIWGQGTLVTVSS
VL: DIQMTQSPSSLSASVGDRVTITCKASQNVGINVAWYQQKPGKAPKALIYSATQRYSGVPSKFSGSGSGTDFTLTISSLQPEDFATYFCQQYYGYPLTFGQGTRLEIKR
notes: Humanized (CDR grafting with back mutations), human IgG1 / kappa
- IC50 [1]: 0.298 mg/L
- EC50 [2]: 0.0651 mg/L
- EC50 [3]: 0.0864 mg/L
- EC50 [4]: 0.378 mg/L
- Kd [5]: 0.4 nM
- Jurkat-PD-1/NFAT-luciferase报告基因活性 (luciferase bioluminescence), EC50 [6]: 0.0838 mg/L

B2: 人-鼠嵌合抗体MT02-L4 (human-mouse chimeric anti-human PD-L1 antibody MT02-L4) (antibody, human IgG1, kappa, V domains shown)
VH: EVQLQESGPSLVKPSQTLSLTCSVTGDSITSGYWSWIRKFPGNNLDYMGYISYTGSTYYSPSLIRRMSINRDTSKNQFYLQLNSVTTEDTATYYCAKYENWKEGYFDIWGAGTTVTVSS
VL: DIVMTRSQKFMSTSVGDRVSVTCKASQNVGINVAWYQQKAGQSPKALIHSATQRYSGVPDRFTGGGSGTDFTLTIDDVQSADLAEYFCQQYYGYPLTFGAGTRLELKR
notes: Mouse 13B8 variable regions joined to the human IgG1 heavy constant region and the kappa constant region
- IC50 [1]: 0.481 mg/L
- EC50 [2]: 0.216 mg/L
- EC50 [3]: 0.0445 mg/L
- EC50 [4]: 0.209 mg/L
- EC50 [7]: 0.0422 mg/L
